Experiments:
Assay in all cases: anti-FLAG co-IP from lysate of N-FLAG B3GNT2 cells, mass spectrometry
[1] = target: T1, NTPCR (human, UniProt Q9BSD7 2-190)
T1 construct: also called NP_001316381.1 (+2)
T1 sequence (looked up): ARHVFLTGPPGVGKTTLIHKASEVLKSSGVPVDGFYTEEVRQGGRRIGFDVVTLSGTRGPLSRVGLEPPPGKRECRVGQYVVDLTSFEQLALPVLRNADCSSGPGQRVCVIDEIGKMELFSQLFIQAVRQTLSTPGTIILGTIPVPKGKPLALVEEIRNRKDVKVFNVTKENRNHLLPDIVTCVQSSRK

[2] = target: T2, HDGFL2 (human, UniProt Q7Z4V5 1-671)
T2 construct: also called NP_001001520.1 (+4)
T2 sequence (Q7Z4V5 whole entry): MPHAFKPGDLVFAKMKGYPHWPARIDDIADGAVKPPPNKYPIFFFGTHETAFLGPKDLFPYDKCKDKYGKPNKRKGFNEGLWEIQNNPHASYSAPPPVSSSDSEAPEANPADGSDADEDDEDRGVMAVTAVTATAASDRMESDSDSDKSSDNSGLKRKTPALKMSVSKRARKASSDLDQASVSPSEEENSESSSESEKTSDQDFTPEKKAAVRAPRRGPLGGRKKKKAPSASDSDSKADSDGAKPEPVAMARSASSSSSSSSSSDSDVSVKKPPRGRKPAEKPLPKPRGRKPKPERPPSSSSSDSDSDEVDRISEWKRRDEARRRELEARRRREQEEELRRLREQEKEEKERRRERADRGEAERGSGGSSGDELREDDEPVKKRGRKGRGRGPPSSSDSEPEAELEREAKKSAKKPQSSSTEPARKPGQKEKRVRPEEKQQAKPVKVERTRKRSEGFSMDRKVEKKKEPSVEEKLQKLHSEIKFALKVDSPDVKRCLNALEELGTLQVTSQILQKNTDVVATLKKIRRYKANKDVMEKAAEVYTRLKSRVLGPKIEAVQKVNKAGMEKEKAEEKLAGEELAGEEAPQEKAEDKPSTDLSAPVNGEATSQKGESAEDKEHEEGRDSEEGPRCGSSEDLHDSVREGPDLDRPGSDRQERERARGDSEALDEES

[3] = target: T3, H1FX (human, UniProt Q92522 2-213)
T3 construct: also called NP_006017.1
T3 sequence (Q92522 2-213 limits assumed): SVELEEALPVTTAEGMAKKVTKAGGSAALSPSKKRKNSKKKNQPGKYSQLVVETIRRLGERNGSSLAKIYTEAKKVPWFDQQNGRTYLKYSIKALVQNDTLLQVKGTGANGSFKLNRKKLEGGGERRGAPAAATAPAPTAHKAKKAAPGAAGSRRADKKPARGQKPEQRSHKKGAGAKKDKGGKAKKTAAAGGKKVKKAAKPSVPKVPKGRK

[4] = target: T4, PDIA4 (human, UniProt P13667 21-645)
T4 construct: also called XP_006716248.1
T4 sequence (looked up): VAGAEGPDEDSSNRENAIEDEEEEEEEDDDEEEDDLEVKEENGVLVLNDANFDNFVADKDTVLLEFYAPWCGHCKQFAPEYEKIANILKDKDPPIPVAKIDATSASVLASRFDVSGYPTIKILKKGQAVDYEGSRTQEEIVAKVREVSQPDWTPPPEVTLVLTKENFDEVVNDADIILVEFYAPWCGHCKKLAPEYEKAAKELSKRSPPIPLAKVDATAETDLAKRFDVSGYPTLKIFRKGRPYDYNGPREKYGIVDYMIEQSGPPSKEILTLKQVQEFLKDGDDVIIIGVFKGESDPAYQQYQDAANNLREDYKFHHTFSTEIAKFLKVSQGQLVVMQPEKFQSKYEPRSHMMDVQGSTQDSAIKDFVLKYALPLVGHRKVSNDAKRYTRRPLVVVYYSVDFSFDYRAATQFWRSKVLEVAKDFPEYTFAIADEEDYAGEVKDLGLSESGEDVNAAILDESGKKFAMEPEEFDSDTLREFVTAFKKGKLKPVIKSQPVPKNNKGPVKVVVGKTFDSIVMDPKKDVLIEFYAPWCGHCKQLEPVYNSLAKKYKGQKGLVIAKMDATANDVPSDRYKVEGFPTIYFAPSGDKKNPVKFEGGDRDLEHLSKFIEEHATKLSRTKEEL

[5] = target: T5, TRAFD1 (human, UniProt O14545 2-582)
T5 construct: also called NP_006691.1
T5 sequence (looked up): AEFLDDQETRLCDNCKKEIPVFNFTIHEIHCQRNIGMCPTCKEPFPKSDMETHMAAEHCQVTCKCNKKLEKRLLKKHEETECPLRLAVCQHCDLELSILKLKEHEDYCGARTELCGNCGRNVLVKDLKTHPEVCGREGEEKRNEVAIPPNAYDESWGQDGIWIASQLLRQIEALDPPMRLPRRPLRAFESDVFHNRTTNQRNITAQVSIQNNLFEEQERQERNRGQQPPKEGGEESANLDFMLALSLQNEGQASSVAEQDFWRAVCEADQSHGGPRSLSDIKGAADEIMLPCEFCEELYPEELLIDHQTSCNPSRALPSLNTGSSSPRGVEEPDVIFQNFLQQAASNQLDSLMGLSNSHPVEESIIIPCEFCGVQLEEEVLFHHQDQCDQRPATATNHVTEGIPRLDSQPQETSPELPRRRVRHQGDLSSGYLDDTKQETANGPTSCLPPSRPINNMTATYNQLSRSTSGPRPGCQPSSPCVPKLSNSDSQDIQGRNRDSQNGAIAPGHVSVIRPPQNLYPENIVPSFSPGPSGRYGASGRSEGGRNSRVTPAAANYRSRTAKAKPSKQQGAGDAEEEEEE

[6] = target: T6, SFXN3 (human, UniProt Q9BWM7 1-321)
T6 construct: also called NP_112233.2
T6 sequence (looked up): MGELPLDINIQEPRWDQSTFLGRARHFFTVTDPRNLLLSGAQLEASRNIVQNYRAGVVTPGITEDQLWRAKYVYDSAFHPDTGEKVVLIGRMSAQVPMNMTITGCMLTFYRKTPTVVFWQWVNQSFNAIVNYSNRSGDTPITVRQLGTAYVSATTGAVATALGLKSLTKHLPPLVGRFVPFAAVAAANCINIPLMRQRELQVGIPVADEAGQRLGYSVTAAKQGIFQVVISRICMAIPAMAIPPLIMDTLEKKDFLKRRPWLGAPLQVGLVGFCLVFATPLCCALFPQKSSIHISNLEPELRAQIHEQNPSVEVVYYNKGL

Measured: co-IP mass spectrometry count

B1: N-terminal FLAG tagged B3GNT2 (enzyme, human, UniProt Q9NY97 1-397, looked up)
chain: MSVGRRRIKLLGILMMANVFIYFIMEVSKSSSQEKNGKGEVIIPKEKFWKISTPPEAYWNREQEKLNRQYNPILSMLTNQTGEAGRLSNISHLNYCEPDLRVTSVVTGFNNLPDRFKDFLLYLRCRNYSLLIDQPDKCAKKPFLLLAIKSLTPHFARRQAIRESWGQESNAGNQTVVRVFLLGQTPPEDNHPDLSDMLKFESEKHQDILMWNYRDTFFNLSLKEVLFLRWVSTSCPDTEFVFKGDDDVFVNTHHILNYLNSLSKTKAKDLFIGDVIHNAGPHRDKKLKYYIPEVVYSGLYPPYAGGGGFLYSGHLALRLYHITDQVHLYPIDDVYTGMCLQKLGLVPEKHKGFRTFDIEEKNKNNICSYVDLMLVHSRKPQEMIDIWSQLQSAHLKC
notes: Bait of the co-IP; pulled down from cell lysate with mouse anti-FLAG antibody; also called N-FLAG B3GNT2; N-term FLAG; not shown: N-terminal FLAG tag
0: all assays above

Source: US20240261333A1 (published 2024)
